Experimental data published in doi:10.1101/2024.03.13.584854 (bioRxiv, 2024).

T1: Saccharomyces cerevisiae Snf7 mutant (R52E) (Saccharomyces cerevisiae, UniProt P39929 1-240, R52E)
T1 sequence (looked up): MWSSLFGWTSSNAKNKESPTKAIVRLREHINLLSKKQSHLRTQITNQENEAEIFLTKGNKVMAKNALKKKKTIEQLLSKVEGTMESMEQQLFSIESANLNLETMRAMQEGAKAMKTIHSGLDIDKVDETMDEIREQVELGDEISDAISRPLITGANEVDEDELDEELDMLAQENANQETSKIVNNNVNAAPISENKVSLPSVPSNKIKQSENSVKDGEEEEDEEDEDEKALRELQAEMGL


Target: T1, Saccharomyces cerevisiae Snf7 mutant …
Assay: co-sedimentation

Row | binding result | Binder
1 | binds | Saccharomyces cerevisiae Vps2 (natural protein, UniProt P36108 1-232, looked up) MSLFEWVFGKNVTPQERLKKNQRALERTQRELEREKRKLELQDKKLVSEIKKSAKNGQVAAAKVQAKDLVRTRNYIQKFDNMKAQLQAISLRIQAVRSSDQMTRSMSEATGLLAGMNRTMNLPQLQRISMEFEKQSDLMGQRQEFMDEAIDNVMGDEVDEDEEADEIVNKVLDEIGVDLNSQLQSTPQNLVSNAPIAETAMGIPEPIGAGSEFHGNPDDDLQARLNTLKKQT
2 | binds | Saccharomyces cerevisiae Vps24 (natural protein, UniProt P36095 1-224, looked up) MDYIKKAIWGPDPKEQQRRIRSVLRKNGRNIEKSLRELTVLQNKTQQLIKKSAKKNDVRTVRLYAKELYQINKQYDRMYTSRAQLDSVRMKIDEAIRMNTLSNQMADSAGLMREVNSLVRLPQLRNTMIELEKELMKSGIISEMVDDTMESVGDVGEEMDEAVDEEVNKIVEQYTNEKFKNVDQVPTVELAANEEEQEIPDEKVDEEADRMVNEMRERLRALQN
